Results from article doi:10.1101/2023.03.09.531943 (bioRxiv, 2023).

B4: recombinant CML13 (natural protein)
chain: MGKDGLSDDQVSSMKEAFMLFDTDGDGKIAPSELGILMRSLGGNPTQAQLKSIIASENLSSPFDFNRFLDLMAKHLKTEPFDRQLRDAFKVLDKEGTGFVAVADLRHILTSIGEKLEPNEFDEWIKEVDVGSDGKIRYEDFIARMVAK
B5: recombinant CML14 (natural protein)
chain: MSKDGLSNDQVSSMKEAFMLFDTDGDGKIAPSELGILMRSLGGNPTESQLKSIITTENLSSPFDFNRFLDLMAKHLKTEPFDRQLRDAFKVLDKEGTGFVAVADLRHILTSIGEKLQPSEFDEWIKEVDVGSDGKIRYEDFIARMVAK
B6: IQD14-IQ1+2 synthetic peptide, residues 322-367 (peptide)
peptide: not shown
modifications: N-terminal acetylation; C-terminal amidation

Legend:
biotinylated CML14 = molecular target: T1, biotinylated CML14 (Arabidopsis thaliana, UniProt Q8VZ50 1-148, biotin, covalently conjugated (biotin-NHS ester), sites not stated); assay: far-Western, overlay or dot blot
T1 sequence: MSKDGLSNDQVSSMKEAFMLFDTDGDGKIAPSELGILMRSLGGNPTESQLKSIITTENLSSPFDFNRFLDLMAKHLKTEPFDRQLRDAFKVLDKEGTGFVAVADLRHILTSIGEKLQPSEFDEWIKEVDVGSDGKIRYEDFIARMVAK

[1] = molecular target: biotinylated CaM (petunia CaM81) (petunia, UniProt P62199 1-149, biotin, covalently conjugated (biotin-NHS ester), sites not stated); assay: far-Western, overlay or dot blot
biotinylated CML13 = molecular target: T2, biotinylated CML13 (Arabidopsis thaliana, UniProt Q94AZ4 1-148, biotin, covalently conjugated (biotin-NHS ester), sites not stated); assay: far-Western, overlay or dot blot
T2 sequence: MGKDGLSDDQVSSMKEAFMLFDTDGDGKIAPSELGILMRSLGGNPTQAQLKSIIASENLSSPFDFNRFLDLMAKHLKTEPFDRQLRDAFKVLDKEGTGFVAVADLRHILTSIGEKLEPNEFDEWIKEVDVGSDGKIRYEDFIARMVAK

[2] = molecular target: recombinant CaM (petunia CaM81) (petunia, UniProt P62199 1-149); assay: ITC
recombinant CML14 = molecular target: B5; assay: ITC
recombinant CML13 = molecular target: B4; assay: ITC
[3] = molecular target: B6; assay: AUC

B1: recombinant IQD14 (residues 307-418), all three putative IQ domains (domain or fragment)
chain: RREIVYRPEPTLPVQHASATKIQGAFRGYMARKSFRALKGLVRLQGVVRGYSVKRQTINAMKYMQQVVRVQSQIQSRRIKMLENQAQVEKDEAKWAASEAGNDNWDDSVLTK
binding result (biotinylated CML14): binds
binding result [1]: binds
binding result (biotinylated CML13): binds

B2: IQD14-IQ2 synthetic peptide, residues 344-367 (peptide)
peptide: Ac-ALKGLVRLQGVVRGYSVKRQTINA-NH2
binding result [2]: binds

B3: IQD14-IQ1 synthetic peptide, residues 322-346 (peptide)
peptide: Ac-QHASATKIQGAFRGYMARKSFRALK-NH2
Kd (recombinant CML14): 116 nM
Kd (recombinant CML13): 222 nM
Kd [2]: 7 nM

B4
stoichiometry N [3]: 1

B5
stoichiometry N [3]: 1

B6
binding result (recombinant CML14): binds
binding result (recombinant CML13): binds
binding result [2]: binds
